Here are results for 3 substances from paper PMC6150519.

The target of assay [1] is GIRK1/2-CFP.
Assay [2] deals with GIRK1/2-CFP. The source holds these as a separate data set.
In assay [3] the target is GIRK1/2-CFP. Nature of the assay: FRET or BRET; acceptor bleaching under TIRF illumination in living HEK293T cells co-transfected with receptor-YFP (or prestin-YFP) and GIRK1/2-CFP; G protein subunits not additionally transfected; absence or presence of oxo-M (10 uM). Background: BRET reads energy transfer from a luciferase to a nearby fluorophore.

“M1R-YFP (from UniProt P04761 1-460) (receptor)”: the agonist-induced GIRK channel current density (ΔImax), oxo-M 10 uM, tandem constructs M1R-YFP-34/100/265-GIRK1/2, PTX (-); decreased with the increase in the linker length in assay [1] is 11.3 pA/pF. In assay [2], “M2R-YFP (from UniProt P06199 1-466) (receptor)” came in with an agonist-induced GIRK channel current density (ΔImax), oxo-M 10 uM, tandem constructs M2R-YFP-100/265/535-GIRK1/2, PTX (-); not changed with the increases in the linker length of 62 pA/pF. Regarding “receptor-YFP with the long chain in the middle of M2R-i3 (K221-P379) replaced with SGGGS”, the FRET efficiency in assay [3] was 5.5%.
